Measurements reported in the supplement of paper PMC9170038.

System: K4 kissing-loop RNA reporter
Assay: apparent KD of K4 kissing-loop reporter; higher = weaker reporter binding
Details: Eterna round: R107
Procedure: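 RNA-MaP round R107: designed RNA switches with theophylline, tryptophan, arginine or FMN aptamers are transcribed on-chip within common flanks. They are titrated with a labelled K4 kissing-loop RNA reporter in RNA-MaP buffer (100 mM Tris pH 7.5, 80 mM KCl, 4 mM MgCl2), without ligand or with the indicated ligand. Median apparent KD per design.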

[1] = input ligand: theophylline 20 uM
[2] = input ligand: tryptophan 2.4 mM
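Note: bound reporter read as fluorescence of individual clusters on recovered sequencing chips by microscopy, with normalized cluster intensities fitted with a binding model.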

| Sequence | apparent KD of K4 kissing-loop reporter (input ligand: FMN 200 uM) | apparent KD of K4 kissing-loop reporter (input ligand: arginine 13.2 mM) | apparent KD of K4 kissing-loop reporter (input ligand: none) | apparent KD of K4 kissing-loop reporter [1] | apparent KD of K4 kissing-loop reporter [2] |
| --- | --- | --- | --- | --- | --- |
| AAUAAGGUCGCCGAUACCAGCGCAGGCAGAGCAAAGCUCUGCCGGGUAGUGAUGUUACCGCGCCCUUGGCAGCGGUGGCACGACC [Omei KL Theo B SS C v1] | 579 nM | 435 nM | 340 nM | 398 nM | 275 nM |
| AAUAAUAGUUGAGCAGGCGUGGUCUGAGAUACCAGUGAUUUCGAUCACCCUUGGCAGCUCAGCAUGAGUGAUGUUCAUGCUAUUC [Theo A Ex t10] | 147 nM | 114 nM | 134 nM | 145 nM | 131 nM |
| AAUAAUGAUGUUUAGGAAAGUAAAAUGGAAGGAGCGUGCGAAAGCACAGGUAGGUCGCCAGUGAUGUUGGAACCUGAGCAUCAAA [#SwitchBubble 19 #K4Late] | 907 nM | 633 nM | 836 nM | 925 nM | 757 nM |
| AAUACGAAGCAGUGAUGUUGCUUAUGAGAAGGAGCGCACGAAAGUGCAGGUAGGUCGCUCAGCCAUGUGGACGAAAACGUCCACA [whbob_SS_Arginine_A_sa109] | 83.3 nM | 102 nM | 89.2 nM | 102 nM | 80.5 nM |
| AAUACUAUCAGAAGGAGCGUGGAAUAUUCAUCUGUAUCUAAUACGAGUGAUGUUCGUAAUUCACAGGUAGGUCGCUGAUCAAUAA [whbob_Ex_Arginine_B_2th156] | 246 nM | 249 nM | 267 nM | 269 nM | 213 nM |
| AAUACUAUCAGAAGGAGCGUGGAAUAUUCAUCUGUAUCUAAUACGAGUGAUGUUCGUAAUUCACAGGUAGGUCGCUGAUUAAUAC [whbob_Ex_Arginine_B_2th158] | 265 nM | 245 nM | 288 nM | 304 nM | 245 nM |
| AAUAGGGAGUGAUGUUCCCUCACUUAUGAUACCAGUGCCAUCGGACACCCUUGGCAGCAUACGGGCAGUGAUGUUGUUCUUGGAA [Exclusion Theophylline A GF 25] | 129 nM | 148 nM | 156 nM | 155 nM | 119 nM |
| AAUAUAAAGUCGGCCGCCACUGGAUUUAUAUUUGUUAAAUCUGGAUCAAAGUGAUGUUUUGAGUCCAGGACCGGGACAAUUGUUA [JR_ExcTryptoB_Sub001] | 123 nM | 117 nM | 120 nM | 122 nM | 203 nM |
| AAUAUAGUGAUGUUAUAUAAGAAGGAGUUACGAGGACCGGUACGGCCGCCACUCGAAACGAGUGAGGGCUUGGGAGAUUGGGCCC [SSTryptA.I] | 404 nM | 346 nM | 444 nM | 377 nM | 264 nM |
| AAUCCUAACGGAGUGAUGUUCCGUAGCGAUACCAGCCAUUGCGAUGGCCCUUGGCAGCGCUAUAAGCAUUGCUAGUAAGGGCCAA [Theo A Ex t7] | 167 nM | 148 nM | 168 nM | 163 nM | 159 nM |
| AAUCGAGUGAUGUUCGAUGUAGUGCAUUCAGAGGAUAUAGGAUGGGCUAGAAGGCUGAAAAGUGCUUCGAGUGAUGUUCGAAGAU [Exclusion FMN A GF 4] | 47.1 nM | 49 nM | 76.7 nM | 49.7 nM | 56 nM |
| AAUGUGCAGGGAAGGAGCGUAGUCCAGUGCUGUUGGAGUUAAAUACCAGUGAUGUUGGUUAUACAGGUAGGUCGCCCUAAAGCGC [whbob_Ex_Arginine_B_2th160] | 141 nM | 176 nM | 158 nM | 211 nM | 129 nM |
| AAUUACCUAGUGAUGUUGGGAAUAAUAUAACGAGGACCGGUACGGCCGCCACUCGAGGUCCUAAUUAAGAACGCGAAAGCGAAGA [Tryptophan A Exclusion; Euphoria Solution] | 94.4 nM | 60.5 nM | 93.1 nM | 66.8 nM | 189 nM |
| AAUUUAUAUUUAUUCUUUAAUUGUUCAGAAGGAGCGUGAAUUAUCACAGGUAGGUCGCUGAGCUAGUGAUGUUAGCUAUAUACUA [JR_ExcArginiA_Sub008] | 65.5 nM | 105 nM | 62.8 nM | 82.8 nM | 58.4 nM |
| AAUUUAUUAACUGAUACCAGACUAAUUUUAUUUAUUAAGUCAAGUGAUGUUUGACUUUAUGUCCCUUGGCAGCAGAAUUAAUUAA [JR_SSTheophyB_Sub019] | 126 nM | 143 nM | 124 nM | 112 nM | 128 nM |
| AAUUUAUUAACUGAUACCAGACUUUAGCGUGUUUAUAAGUCAAGUGAUGUUUGACUAUUAGUCCCUUGGCAGCAGUAUUUAUUAA [JR_SSTheophyB_Sub022] | 149 nM | 131 nM | 134 nM | 114 nM | 120 nM |
| AAUUUGUAUUUAUUCUUUAAAUGUUCAGAAGGAGCGUGAAUUAUCACAGGUAGGUCGCUGAGCUAGUGAUGUUAGCUAUACACUA [#01 K4 Arginine A Exclusion] | 98.5 nM | 201 nM | 127 nM | 181 nM | 91 nM |
| ACAGAUUGAUUGAUUCACUUUGUAGCUGCGAAGGAUAUUAAGACGCUAAGAAGGUCGCUUAAGGGUAGUGAUGUUACCUUUUGAG [theeternabot_sameState_KL_FMN_A_27] | 57.3 nM | 55 nM | 57.8 nM | 56.6 nM | 51.4 nM |
| ACCAUCAAAGAUGGCCAGGACUCAACUGAUACCAGAGUGGAAACACUCCCUUGGCAGCAGGUGAGUGAUGUUCACGAGUCCUGGA [Omel KL Theo A SS B v8] | 942 nM | 786 nM | 982 nM | 522 nM | 787 nM |
| ACCUACCAUUAGUGAUGUUAAUGGACGGAAGGAGCGCGGAUAUCUGCAGGUAGGUCGCCGAAGGCUAGACAUUGUCUAGCCAUUA [AK1 SS Arginine A] | 149 nM | 113 nM | 131 nM | 107 nM | 120 nM |
| ACGCUAGCUACCGAAAGGUAGCUAGCGAGUGAGGAUAUGUGGAAACACAGAAGGCACAGCACAGUGAUGUUGUGCGGCGAAAGCC | 587 nM | 249 nM | 932 nM | 522 nM | 729 nM |

| Sequence | apparent KD of K4 kissing-loop reporter (input ligand: FMN 200 uM) | apparent KD of K4 kissing-loop reporter (input ligand: arginine 13.2 mM) | apparent KD of K4 kissing-loop reporter (input ligand: none) | apparent KD of K4 kissing-loop reporter [1] | apparent KD of K4 kissing-loop reporter [2] |
| --- | --- | --- | --- | --- | --- |
| ACGUAGUACGUAGGAUAUCAGAGAUCAGUUAGUGAGAUCGAGUGAUGUUCGAUCAUGUGUUCAUUUUGAGAAGGAUGUAGUAGGA [KL-SSFMN-B6] | 302 nM | 302 nM | 366 nM | 358 nM | 228 nM |
| ACUACGAAGACGGCCGCCACUGAUAUUCGUAGAUCCAUCAUUGCAUGAGUGAUGUUCAUGUAUAUCAGGACCGGGUCAAGAUGGU [KL-XTryp-B18 #analogue] | 295 nM | 245 nM | 305 nM | 282 nM | 213 nM |
| ACUAGAAAACCAGUGAUGUUGGCCUGGGAUACCAGCUUCUAUUAUAGCCCUUGGCAGCCCUUUAGUACAAGUGACCUUGCGACCG [theeternabot_sameState_KL_Theo_A_9] | 299 nM | 217 nM | 452 nM | 217 nM | 277 nM |
| AGAACUGUCUGAGAUACCAGCUAAGGAGUGAUGUUCCGGCUCGACGAAACGUCGAGCCAUAGCCCUUGGCAGCUCAGACAGUUCA [#27 K4 Theophylline B Same State] | 431 nM | 183 nM | 378 nM | 873 nM | 244 nM |
| AGAACUGUCUUGGAUACCAGUGAUGUUGGUAUCGAUGUGUGAGUGCAAAGCGUCCCACAUCGCCCUUGGCAGCUAAGACUGUUCA [Omei KL Theo B Exc A v4] | 287 nM | 238 nM | 302 nM | 349 nM | 257 nM |
| AGACCACAAAGUGGUCAGUGUUCGCUCCGGCGAGGACCGGUACGGCCGCCACUCGCGAGUGAUGUUCGCGAGUGGAGCGAACACA [Omei KL Tryp A Exc A v1] | 88.8 nM | 78 nM | 88.6 nM | 76 nM | 86.3 nM |
| AGACCACAAAGUGGUCAGUGUUCGCUGCCGCGAGGACCGGUACGGCCGCCACUCGCGAGUGAUGUUCGCGAGGGCAGCGAACACA [Omei KL Tryp A Exc A v4] | 99.7 nM | 87.8 nM | 87.9 nM | 86.8 nM | 106 nM |
| AGACUACCACACUGUCAAUAGACAGUGAACUAGGAUAUGCUGAUAAGCAGAAGGAGUGAUGUUCCGAGGUAGUCAAUAAAAUAAU [FmnAX 13 G66] | 281 nM | 246 nM | 287 nM | 334 nM | 289 nM |
| AGACUACCACACUGUCAAUAGACAGUGUACUAGGAUAUGCUGAUAAGCAGAAGGAGUGAUGUUCCUCGGUAGUCAAUAAAAUAAU [FmnAX 13 U28+C67] | 220 nM | 300 nM | 286 nM | 350 nM | 276 nM |
| AGACUACUGACAGGAUAUAACAUACUAGCUCGUAUACCAAAGGUAUACGAGCACCUUCUAGUGAUGUUAGAAGGGUCGGUAGUCA [Omei KL FMN B Exc B v2] | 412 nM | 264 nM | 300 nM | 310 nM | 310 nM |
| AGACUACUGAUAGGAUAUAACAUCCUAGUCGUAUACCGAAAGGUAUACGAUUUCCUUCUAGUGAUGUUAGAAGGGUCGGUAGUCA [Omei KL FMN B Exc B v11] | 106 nM | 82.4 nM | 89.1 nM | 81.1 nM | 89.1 nM |
| AGACUUCACCGAAGGAGCGACGUGGCCUAGUGAUGUUAGGUACGAGAGAAAUCUCGUAUACGUCAGGUAGGUCGCGGUGAAGUCA [Omei KL Arginine B SS C v8] | 868 nM | 643 nM | 997 nM | 721 nM | 830 nM |
| AGAGUUAUAUGAGGAUAUGGGAUAGUAACUGAGUGAGUUAUAGUGUAGUUUGUUUAGUGAUGUUAUUUAGAAGGCGUGAGUGAUG [wwwsemullin] | 162 nM | 121 nM | 147 nM | 182 nM | 107 nM |
| AGAGUUAUGCGAGGAUAUGCAGUUAGUACUCAAAGAGUACUAACGCAGAGUGAUGUUCUGUGAAAAGCAGAAGGUGCAUAACUCA [Omei KL FMN B SS B v6] | 155 nM | 650 nM | 693 nM | 597 nM | 669 nM |
| AGAUAGGGCUGAAGGAGCGUCGGAGAAGAGAAGAAGGAAUCCAGUGAUGUUGGAUAAAUCCGACAGGUAGGUCGCAGUUUUAUGA [hbob_SS_Arginine_B_2t138] | 108 nM | 126 nM | 99 nM | 109 nM | 115 nM |
| AGAUGGAAUAGAAGGAGCGGCGCCAGUGAUGUUGGAUGCCGCGGGUGAAUCAGAUCAUAGUGCCAGGUAGGUCGCUAUUUCAGCG [Anedin] | 113 nM | 101 nM | 106 nM | 116 nM | 112 nM |
| AGCCUUACAUCGGCCGCCACUUCCCUGGCAGUGAUGUUGCCGUAGACAAUCAUUCUACCCUGGAGAAGGACCGGGAUGCAGAAAC [theeternabot_sameState_KL_Trp_B_8] | 154 nM | 185 nM | 167 nM | 223 nM | 329 nM |
| AGCGUCUGAAGAGGAUAUGACCAGUGAUGUUGGUUACUACCUCAAAUUAGUGUCGCGCCAAAAUCGUCAGAAGGCUUCGGCGCGC [Ussoes] | 135 nM | 92 nM | 98.6 nM | 96.7 nM | 92.9 nM |
| AGCUCAGAGUGACUCGAUAAGAGUCACAAACGAGGACCGGUACGGCCGCCACUCGAAAUAAGGAGAGUGAUGUUCUCGCUGAGCA [FiskerMod 8 - Jieux - Same State Tryptophan A] | 454 nM | 81.5 nM | 124 nM | 35.1 nM | 345 nM |
| AGGACGGUUAUGGAUACCAGUCCGGAACUUGUCCAUGGAGUGAUGUUCCGUCCAGCUCCGGACCCUUGGCAGCCAGACUGCUGAA [theeternabot_sameState_KL_Theo_B_41] | 185 nM | 189 nM | 192 nM | 138 nM | 198 nM |
| AGGAUGUAGUGAUGUUAUAUAAAAGGUAAACGAGGACCGGUACGGCCGCCACUCGAAGCGGCUGCUAAGAGGGAAAGAAGAGGAA [ExTryptoA.E] | 496 nM | 464 nM | 570 nM | 684 nM | 371 nM |
